Earlier results on 1 substance are cited in publication PMC7031699.

Like-named read-outs stand apart in the source and are kept apart here.

Data set [1] has as its target Gq (Homo sapiens) (UniProt P50148).
For data set [2] the target is unchanged. This is another data set of the same source.

UniProt P50148, sequence (P50148 whole entry): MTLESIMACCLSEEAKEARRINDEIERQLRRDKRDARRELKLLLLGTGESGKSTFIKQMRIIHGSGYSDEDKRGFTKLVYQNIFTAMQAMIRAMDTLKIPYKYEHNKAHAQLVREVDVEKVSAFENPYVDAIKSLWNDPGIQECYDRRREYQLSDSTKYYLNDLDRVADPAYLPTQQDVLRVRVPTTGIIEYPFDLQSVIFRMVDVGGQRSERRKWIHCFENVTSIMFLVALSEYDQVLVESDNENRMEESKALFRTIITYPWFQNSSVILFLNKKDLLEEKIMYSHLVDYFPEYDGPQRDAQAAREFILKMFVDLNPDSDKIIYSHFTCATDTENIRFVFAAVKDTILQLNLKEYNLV

Consider NTS1 (from UniProt P20789), for which the dissociation constant Kd with Gq (Homo sapiens) [1] was 550 nM; with Gq (Homo sapiens) [2] it was over 5 µM.

As usually defined, the Kd is the constant that tells how readily two partners part at equilibrium.
